The labels stand for the following.
T1: Kv2.1 (endogenous, rat cortical neurons) (rat, UniProt P15387 1-857)
T1 construct: Endogenous channel in fixed, permeabilised primary cortical neurons of Sprague-Dawley rats, detected with a rabbit anti-Kv2.1 antibody; also called delayed-rectifying voltage-gated potassium channel Kv2.1
T1 sequence: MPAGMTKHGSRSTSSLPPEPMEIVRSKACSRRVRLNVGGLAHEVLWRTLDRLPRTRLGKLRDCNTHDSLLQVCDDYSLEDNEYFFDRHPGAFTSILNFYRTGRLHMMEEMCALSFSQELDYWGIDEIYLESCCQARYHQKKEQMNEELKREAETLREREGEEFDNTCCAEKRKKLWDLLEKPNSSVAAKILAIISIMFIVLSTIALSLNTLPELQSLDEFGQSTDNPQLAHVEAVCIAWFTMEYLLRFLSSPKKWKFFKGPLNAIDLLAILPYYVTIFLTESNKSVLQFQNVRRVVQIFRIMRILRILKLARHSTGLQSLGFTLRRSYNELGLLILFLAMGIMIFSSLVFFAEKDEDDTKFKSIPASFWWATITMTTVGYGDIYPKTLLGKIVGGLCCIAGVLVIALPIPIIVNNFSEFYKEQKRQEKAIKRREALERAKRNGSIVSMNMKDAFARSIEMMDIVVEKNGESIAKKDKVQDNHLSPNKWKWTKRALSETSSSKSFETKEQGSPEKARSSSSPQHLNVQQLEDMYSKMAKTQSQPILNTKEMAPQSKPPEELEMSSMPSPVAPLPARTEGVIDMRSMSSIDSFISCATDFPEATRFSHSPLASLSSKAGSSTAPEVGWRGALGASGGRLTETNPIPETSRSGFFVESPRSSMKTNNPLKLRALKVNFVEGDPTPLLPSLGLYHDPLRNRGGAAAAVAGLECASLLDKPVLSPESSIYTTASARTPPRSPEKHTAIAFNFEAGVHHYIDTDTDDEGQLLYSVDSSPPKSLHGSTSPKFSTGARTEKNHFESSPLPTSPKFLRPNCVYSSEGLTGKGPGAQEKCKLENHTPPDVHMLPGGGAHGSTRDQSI

T2: VAPA 1-242 expressed from pEGFP-N1-VAPA; 1-242 (Addgene #18874) in HEK293 cells (UniProt Q9Z270 1-242)
T2 construct: range 1-242; Used as a whole lysate of transfected HEK293 cells (1 mg/ml total protein), detected with anti-VAPA antibody; also called VAMP-associated protein A; VAPA proteins; not shown: EGFP implied by the vector name pEGFP-N1
T2 sequence (looked up): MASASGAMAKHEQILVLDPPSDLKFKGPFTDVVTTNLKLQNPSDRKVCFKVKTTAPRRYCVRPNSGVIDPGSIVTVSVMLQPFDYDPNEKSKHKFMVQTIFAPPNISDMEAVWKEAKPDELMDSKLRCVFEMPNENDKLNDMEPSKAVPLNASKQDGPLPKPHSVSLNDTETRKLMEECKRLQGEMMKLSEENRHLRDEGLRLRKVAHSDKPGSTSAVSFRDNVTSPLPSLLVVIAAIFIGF

B1: VAPA (endogenous, rat cortical neurons) (other, UniProt Q9Z270 2-249, looked up)
chain: ASASGAMAKHEQILVLDPPSDLKFKGPFTDVVTTNLKLQNPSDRKVCFKVKTTAPRRYCVRPNSGVIDPGSIVTVSVMLQPFDYDPNEKSKHKFMVQTIFAPPNISDMEAVWKEAKPDELMDSKLRCVFEMPNENDKLNDMEPSKAVPLNASKQDGPLPKPHSVSLNDTETRKLMEECKRLQGEMMKLSEENRHLRDEGLRLRKVAHSDKPGSTSAVSFRDNVTSPLPSLLVVIAAIFIGFFLGKFIL
notes: whole, on cells; Endogenous ER protein inside fixed, permeabilised neurons, detected with a mouse anti-VAPA antibody; also called VAMP-associated protein A
B2: DP-2 peptide (SIDSFTS) (peptide)
peptide: SIDSFTS
notes: Synthesised and spotted on Celluspots membrane through a polyethylene glycerol spacer (peptide spot array); also called declustering peptide 2
B3: non-canonical FFAT motif of Kv2.1 (SFISCAT) (peptide)
peptide: SFISCAT
notes: The text says it was tested on the peptide array

In one assay the target is T1, Kv2.1 (endogenous, rat cortical neurons). The assay can be described thus: proximity ligation assay in fixed rat cortical neurons. The procedure:
Duolink proximity ligation assay (PLA) technology (Sigma-Aldrich, St. Louis, Mo.) was utilized to assess in situ protein-protein interaction between Kv2.1 and vesicle-associated molecular protein (VAMP)-associated protein A (VAPA). Primary cortical neurons on glass coverslips were treated in 24-well plates with vehicle (dH₂O), TAT-Sc-2 (10 μM), or TAT-DP-2 (10 μM) for 2 hours at 37° C./5% CO₂. Neurons were then rinsed with 2 mL ice-cold sterile PBS and then transferred to 1 mL 4% paraformaldehyde (PFA) in PBS for 20 minutes to fix. Coverslips were transferred to 1 mL 0.1 M glycine (in PBS) to quench fixation and rinsed three times in 1 mL PBS. Membrane permeabilization was accomplished with 1 mL 0.25% Triton X-100 (Sigma-Aldrich, St. Louis, Mo.) and non-specific binding was blocked with 10% bovine serum albumin (in PBS) for 30 minutes. Primary immunolabeling was accomplished by 18-24 hour exposure to rabbit anti-Kv2.1 polyclonal antibody (1:500 in 3% BSA; RRID AB_2040162; Alomone Labs, Jerusalem, Israel), mouse anti-VAPA monoclonal antibody (1:500 in 3% BSA; RRID AB_2722702; UC Davis/NeuroMab Facility), and chicken anti-MAP2 polyclonal antibody (1:1000 in 3% BSA; RRID AB_5392; Abcam, Cambridge, Mass.) in 3% BSA (in PBS) at 4° C. under gentle agitation. […]
Regarding B1, the binding result was “binds”.

The next assay deals with T2, VAPA 1-242 expressed from …. The assay can be described thus: peptide spot array (far western) with lysate of HEK293 cells expressing VAPA 1-242, anti-VAPA detection. The method, then: Standard 9-fluorenylmethoxy carbonyl chemistry was used to synthesize peptides and spot them onto Celluspots nitrocellulose disks prederivatized with a polyethylene glycerol spacer (Intavis), using the Respep peptide synthesizer. The peptides were spotted on 20 membranes fitted on microscope glass slides (Intavis) using an Intavis MultiPep robot. For hybridization and immunoblotting of arrays, Celluspots slides were washed in TBST (50 mM Tris-HCl, pH 7.4, 150 mM NaCl, 0.1% Tween 20) for 10 minutes, […] blocked for 1 hour at room temperature (RT) with gentle shaking in TBST containing 5% nonfat dry milk. Lysates from HEK293 cells transfected as before (Yeh et al., J Neurosci. 37: 5648-5658, 2017; Yeh et al., Proc Natl Acad Sci USA. 116: 15696-15607, 2019; Dustrude et al., Proc Natl Acad Sci USA. 113: E8443-E8452, 2016) with pEGFP-N1-VAPA; 1-242 (Addgene #18874) were made in 20 mM Tris, 50 mM NaCl, 2 mM MgCl₂, 1% Tergitol, 0.5% sodium deoxycholate, 0.1% sodium dodecyl sulfate with protease (Cat #B14002, Bimake), phosphatase (Cat #B15002, Bimake) inhibitor cocktails and 5 U/ml of universal nuclease (Cat #88702, Thermofisher) added extemporaneously. The concentration of lysates was measured by BCA (Cat #23227, Thermofisher) and peptide arrays were incubated with 1 mg/ml of total protein overnight at 4° C. (Yeh et al., J Neurosci. 37: 5648-5658, 2017; Yeh et al., Proc Natl Acad Sci USA. 116: 15696-15607, 2019; Moutal et al., Pain. 158: 2203-2221, 2017). Peptide arrays were washed 3 times for 5 minutes at RT with TBST and incubated with the primary antibody anti-VAPA (RRID AB_2722707; UC Davis/NIH NeuroMab Facility) for 2 hours at RT with gentle shaking in TBST, 5% BSA. After washing with TBST, the membranes were incubated in secondary antibody (IRDye® 800CW goat anti-mouse IgG secondary antibody; RRID AB_621842; Li-Cor) for 45 minutes, washed 3 times for 5 minutes in TBST, and visualized by infrared fluorescence (Li-Cor). Four independent peptide spot arrays were used in this study. Fluorescence intensity was analyzed with Image studio (Li-Cor).
B2: the binding result is “no binding (tested: lysate at 1 mg/ml of total protein)”.

As to SIDSFTD [Ser to Asp mutant of DP-2 (SIDSFTD)], the binding result is given as “no binding (tested: lysate at 1 mg/ml of total protein)”.

SIDDFTD [Ser to Asp mutant of DP-2 (SIDDFTD)]: the binding result was “no binding (tested: lysate at 1 mg/ml of total protein)”.

For DIDSFTS [Ser to Asp mutant of DP-2 (DIDSFTS)], the binding result is reported as “no binding (tested: lysate at 1 mg/ml of total protein)”.

On to EIDSFTS [Ser to Glu mutant of DP-2 (EIDSFTS)], for which the binding result is “no binding (tested: lysate at 1 mg/ml of total protein)”.

For SIDEFTE [Ser to Glu mutant of DP-2 (SIDEFTE)], the binding result was “no binding (tested: lysate at 1 mg/ml of total protein)”.

Turning to EIDEFTE [Ser to Glu mutant of DP-2 (EIDEFTE)], the binding result is on record as “no binding (tested: lysate at 1 mg/ml of total protein)”.

Consider DIDDFTS [Ser to Asp mutant of DP-2 (DIDDFTS)], for which the binding result is listed as “no binding (tested: lysate at 1 mg/ml of total protein)”.

As to DIDSFTD [Ser to Asp mutant of DP-2 (DIDSFTD)], the binding result is given as “no binding (tested: lysate at 1 mg/ml of total protein)”.

As to EIDSFTE [Ser to Glu mutant of DP-2 (EIDSFTE)], the binding result is listed as “no binding (tested: lysate at 1 mg/ml of total protein)”.

On to SIDDFTS [Ser to Asp mutant of DP-2 (SIDDFTS)], for which the binding result is given as “no binding (tested: lysate at 1 mg/ml of total protein)”.

Consider DIDDFTD [Ser to Asp mutant of DP-2 (DIDDFTD)], for which the binding result was “no binding (tested: lysate at 1 mg/ml of total protein)”.

Turning to SIDSFTE [Ser to Glu mutant of DP-2 (SIDSFTE)], the binding result is reported as “no binding (tested: lysate at 1 mg/ml of total protein)”.

In the case of EIDEFTS [Ser to Glu mutant of DP-2 (EIDEFTS)], the binding result is recorded as “no binding (tested: lysate at 1 mg/ml of total protein)”.

For SIDEFTS [Ser to Glu mutant of DP-2 (SIDEFTS)], the binding result is listed as “no binding (tested: lysate at 1 mg/ml of total protein)”.

With B3, the binding result is recorded as “no binding (tested: lysate at 1 mg/ml of total protein)”.

With SFTSCAT [non-canonical FFAT motif of Kv2.2 (SFTSCAT)], the binding result is given as “no binding (tested: lysate at 1 mg/ml of total protein)”.
